This is an account of results in patent publication CN115197321A (UNIV SICHUAN, dated 2022).

Where a chain is given by its changes, count along the chain named. In names and notes the source's numbering stands. Read-outs that look alike come from different tables or passages of the source.

The target of assay [1] is CD25-hIgG1Fc(人CD25胞外域的C端融合人IgG1的Fc段) (human) (UniProt P01589). Nature of the assay: ELISA, coated CD25-hIgG1Fc 1 μg/mL.
Assay [2] deals with T1, CD25-His(人CD25胞外域的C端融合6×His标签) (human, UniProt P01589 22-240).
T1 construct: extracellular domain; Made in-house; also called 人CD25-His
T1 sequence: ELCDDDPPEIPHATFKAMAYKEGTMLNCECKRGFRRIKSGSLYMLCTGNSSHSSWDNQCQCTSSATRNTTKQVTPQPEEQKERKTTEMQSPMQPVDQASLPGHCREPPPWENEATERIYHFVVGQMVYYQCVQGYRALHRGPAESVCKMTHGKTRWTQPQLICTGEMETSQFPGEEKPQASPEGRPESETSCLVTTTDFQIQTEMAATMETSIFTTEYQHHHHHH
The experiment in a line: SPR (Biacore).

Assay [3] concerns the target T1, CD25-His(人CD25胞外域的C端融合6×His标签). The experiment in a line: SPR (Biacore) binding kinetics, Figure 6.
The target in assay [4] is T2, 人CD25 (on CD25-positive cells: SU-DHL-1, U937, NK-92, human PBMC) (human, UniProt P01589 22-272).
T2 construct: whole, on cells; Endogenous CD25 on human cells; also called IL-2Rα
T2 sequence (looked up): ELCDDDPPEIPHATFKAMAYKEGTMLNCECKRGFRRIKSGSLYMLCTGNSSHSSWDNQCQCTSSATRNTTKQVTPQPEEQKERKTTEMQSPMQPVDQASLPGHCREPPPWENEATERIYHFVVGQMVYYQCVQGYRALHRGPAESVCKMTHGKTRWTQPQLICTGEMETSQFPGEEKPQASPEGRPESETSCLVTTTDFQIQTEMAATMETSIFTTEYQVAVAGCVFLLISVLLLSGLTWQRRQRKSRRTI
The experiment in a line: flow cytometry on SU-DHL-1 and U937 cells, Figure 8.

The target in the next assay is T3, 鼠CD25(R&D公司) (鼠 (mouse), UniProt P01590 22-236, limits assumed).
T3 construct: Bought protein
T3 sequence (looked up): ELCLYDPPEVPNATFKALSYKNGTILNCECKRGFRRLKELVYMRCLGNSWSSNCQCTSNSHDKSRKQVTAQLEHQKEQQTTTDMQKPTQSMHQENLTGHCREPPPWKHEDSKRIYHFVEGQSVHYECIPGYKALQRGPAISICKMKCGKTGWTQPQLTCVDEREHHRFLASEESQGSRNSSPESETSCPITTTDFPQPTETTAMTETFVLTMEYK
Nature of the assay: ELISA, coated mouse CD25 50 ng/well, hybridoma supernatant.

For assay [5], the target named is T1, CD25-His(人CD25胞外域的C端融合6×His标签). Nature of the assay: SPR (Biacore). The source holds these as a separate data set.

With 小鼠IgG (antibody), the OD450 in assay [1] was less than 0.3 OD.

B1: 人源化抗体h7B7-15 (antibody, V domains shown)
VH: QVQLQESGPGLVKPSQTLSLTCAVYGYSITSDYAWNWIRQPPGKGLEWIGYINYSGSTSYNPSLKSRVTISVDTSKNQFSLKLSSVTAADTAVYYCARKGGFFDVWGQGTTVTVSS
VL: DIQMTQSPSSLSASVGDRVTITCSASQGISNYLNWYQQKPGKAPKLLIYYTSSLHSGVPSRFSGSGSGTDFTFTISSLQPEDIATYYCLQYSKLPWTFGGGTKVEIK
notes: Human IgG1κ; heavy chain 4 (IGHV4-34*09) with light chain 3 (IGKV1-33*01)
Regarding B1, in assay [2], the dissociation constant (Kd) worked out at 2.33 nM, the off-rate (koff) was 0.000356 s⁻¹ and the kon amounted to 153000 M⁻¹ s⁻¹.

B2: h7B7-15Y (antibody, V domains shown)
VH: B1 VH with N53Y
VL: B1 VL
notes: Mutant of h7B7-15 in the N of the NYS motif of VH-CDR2; human IgG1κ as the parent; also called h7B7突变体 N53Y
As to B2, the binding result in assay [2] is “no binding”.

B3: h7B7-15Q (antibody, V domains shown)
VH: B1 VH with N53Q
VL: B1 VL
notes: Mutant of h7B7-15 in the N of the NYS motif of VH-CDR2; human IgG1κ as the parent; also called h7B7突变体 N53Q
In assay [2], B3 yielded a Kd of 21.1 nM, a koff of 0.00502 s⁻¹ and a kon of 238000 M⁻¹ s⁻¹.

B4: h7B7-15S (antibody, V domains shown)
VH: B1 VH with N53S
VL: B1 VL
notes: N53S mutant of h7B7-15; human IgG1κ as the parent; also called h7B7突变体 N53S
Turning to B4, in assay [2], the Kd was 4.83 nM, the koff was found to be 0.000554 s⁻¹ and the association rate constant (kon) stood at 115000 M⁻¹ s⁻¹.

B5: h7B7-15A (antibody, V domains shown)
VH: B1 VH with N53A
VL: B1 VL
notes: Mutant of h7B7-15 in the N of the NYS motif of VH-CDR2; human IgG1κ as the parent; also called h7B7突变体 N53A
In assay [2], B5 returned a Kd of 8.55 nM, an off-rate constant (koff) of 0.00103 s⁻¹ and a kon of 121000 M⁻¹ s⁻¹.

B6: 重组单克隆抗体7B7 (antibody, V domains shown)
VH: EVQLQESGPGLVKPSQSLSLTCTVTGYSITSDYAWNWIRQFPGNKLEWMGYINYSGSTSYNPSLKSRISITRDTSKNQFFLQLNSVTTEDTATYYCARKGGFFDVWGAGTTVTVSS
VL: DIQMTQTTSSLSASLGDRVTISCSASQGISNYLNWYQQKPDGTVKLLIYYTSSLHSGVPSRFSGSGSGTDYSLTISNLEPEDIATYYCLQYSKLPWTFGGGTKLEIK
notes: a human-mouse chimeric IgG1κ form was also made; also called 抗体7B7(来自B7)
Take B6: the binding result in assay [3] and in assay [4] was “binds” in each case.

B7: 杂交瘤抗体B7 (antibody, IgG1, V domains shown)
VH: B6 VH
VL: B6 VL
notes: Mouse hybridoma antibody, mIgG1; the tie to the hybridoma antibody rests on that statement
Regarding B7, the binding result in the assay with 鼠CD25(R&D公司) is “no binding”.

B8: 重组单克隆抗体F10-2 (antibody, V domains shown)
VH: QVQLKQSGPGLVQPSQSLSITCTVSGFSLTSYGVHWVRQSPGKGLEWLGVIWRGGSTDYNAAFMSRLSITKDNSKSQVFFKMNSLQAGDTAVYYCAKNERFYGFDYWGQGTTLTVSS
VL: DIVMTQAAFSNPVTLGTSASISCRSSKSLLHSNGITYLYWYLQKPGQSPQLLIYQMSNLASGVPDRFSSSGSGTDFTLRISRVEAEDVGVYYCAQNLELPTFGSGTKLEIK
notes: a human-mouse chimeric IgG1κ form was also made; also called 抗体F10-2(来自F10)
On to B8, for which the binding result in assay [3] and in assay [4] was “binds” each time.

B9: 杂交瘤抗体F10 (antibody, IgG2a, V domains shown)
VH: B8 VH
VL: B8 VL
notes: Mouse hybridoma antibody, mIgG2a; the tie to the hybridoma antibody rests on that statement
For B9, the binding result with 鼠CD25(R&D公司) was “no binding”.

B10: hF10-2-3(BM4+BM3) (antibody, V domains shown)
VH: QVQLKQSGPGLVKPSDTLSLTCTVSGFSLTSYGVHWVRQPPGKGLEWLGVIWRGGSTDYNAAFMSRLSITKDNSKSQVSLKLSSVTAADTAVYYCAKNERFYGFDYWGQGTLVTVSS
VL: B8 VL with A7S, A8P, F9L, N11L, L15P, T17E, S18P, S104G, L108V
notes: Made as for h7B7 (human IgG1κ)
For B10, in assay [5], the Kd was found to be 10.5 nM, the dissociation rate constant (koff) came out at 0.00333 s⁻¹ and the kon is 318000 M⁻¹ s⁻¹.

B11: hF10-2-4(BM5+BM3) (antibody, V domains shown)
VH: B10 VH with Q6E, V37I, L48I
VL: B8 VL with A7S, A8P, F9L, N11L, L15P, T17E, S18P, S104G, L108V
notes: as for B10
In assay [5], B11 showed a Kd of 18.1 nM, an off-rate constant (koff) of 0.00126 s⁻¹ and an association rate constant (kon) of 69900 M⁻¹ s⁻¹.

B12: hF10-2-2(BM5+BM) (antibody, V domains shown)
VH: B10 VH with Q6E, V37I, L48I
VL: B8 VL with A7S, A8P, F9L, N11L, L15P, T17E, S18P, R79K, S104G, L108V
notes: as for B10
As to B12, the binding result in assay [5] was “no binding”.

B13: hF10-2-1(BM4+BM) (antibody, V domains shown)
VH: B10 VH
VL: B8 VL with A7S, A8P, F9L, N11L, L15P, T17E, S18P, R79K, S104G, L108V
notes: as for B10
With B13, the binding result in assay [5] is reported as “no binding”.
